# Assay results: patent publication US20140161732A1 (published 2014)
# Bridge positions count the residues as written; N and C are the ends.
# B1: SEQ ID NO:269 (peptide)
# peptide: Ac-AGWIECYHPDGICYHFGTGGGK-NH2
# modifications: disulfide 6-13 (inferred); also: fluorescein on C-terminal Lys in anisotropy assay only
# B2: SEQ ID NO:294 (peptide)
# peptide: Ac-GDSRVCWEDSWGGEVCFRYDPGGGK-NH2
# modifications: disulfide 6-16 (inferred); also: fluorescein on C-terminal Lys in anisotropy assay only
# Target: KDR on human umbilical vein endothelial cells (HUVECs) (human, UniProt P35968 20-1356)
# Sequence (P35968 20-1356): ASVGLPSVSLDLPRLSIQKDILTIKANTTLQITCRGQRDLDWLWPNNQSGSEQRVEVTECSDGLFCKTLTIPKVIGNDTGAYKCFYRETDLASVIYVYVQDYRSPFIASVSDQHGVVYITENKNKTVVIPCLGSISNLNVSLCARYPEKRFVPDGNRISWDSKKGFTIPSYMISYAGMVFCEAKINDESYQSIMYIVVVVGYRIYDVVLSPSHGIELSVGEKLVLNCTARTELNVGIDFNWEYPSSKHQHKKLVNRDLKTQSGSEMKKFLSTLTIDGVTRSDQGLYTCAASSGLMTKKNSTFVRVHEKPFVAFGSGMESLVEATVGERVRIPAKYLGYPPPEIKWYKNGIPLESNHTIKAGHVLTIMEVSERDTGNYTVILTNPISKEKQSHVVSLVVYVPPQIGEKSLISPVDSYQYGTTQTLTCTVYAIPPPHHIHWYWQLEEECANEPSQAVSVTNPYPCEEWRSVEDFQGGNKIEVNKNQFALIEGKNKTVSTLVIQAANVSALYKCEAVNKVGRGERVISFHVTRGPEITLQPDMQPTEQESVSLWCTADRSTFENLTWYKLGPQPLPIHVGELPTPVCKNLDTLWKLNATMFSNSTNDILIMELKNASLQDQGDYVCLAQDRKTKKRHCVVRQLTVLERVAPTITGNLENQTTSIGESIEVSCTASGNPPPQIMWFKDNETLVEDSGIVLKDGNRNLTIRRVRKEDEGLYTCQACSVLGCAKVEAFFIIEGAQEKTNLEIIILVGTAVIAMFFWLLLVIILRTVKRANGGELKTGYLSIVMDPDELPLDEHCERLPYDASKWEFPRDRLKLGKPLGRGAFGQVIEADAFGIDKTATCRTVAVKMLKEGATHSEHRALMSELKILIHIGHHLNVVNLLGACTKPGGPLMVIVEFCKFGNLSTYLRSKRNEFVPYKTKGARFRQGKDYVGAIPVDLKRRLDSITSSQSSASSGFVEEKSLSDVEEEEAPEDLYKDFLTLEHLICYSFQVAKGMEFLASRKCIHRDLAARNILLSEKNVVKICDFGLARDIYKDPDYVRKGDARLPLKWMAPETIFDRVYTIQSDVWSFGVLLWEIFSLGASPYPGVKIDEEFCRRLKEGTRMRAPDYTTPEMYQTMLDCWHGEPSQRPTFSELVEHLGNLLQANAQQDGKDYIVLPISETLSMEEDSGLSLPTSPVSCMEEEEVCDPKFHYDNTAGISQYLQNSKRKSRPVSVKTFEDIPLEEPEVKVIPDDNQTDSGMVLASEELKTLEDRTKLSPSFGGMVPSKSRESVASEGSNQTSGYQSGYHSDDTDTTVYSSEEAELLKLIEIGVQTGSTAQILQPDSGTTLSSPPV
# Experiment: cell-based or functional assay
row,Binder,VEGF-induced KDR phosphorylation in HUVECs (immunoblot) [% inhibition at 10 µM]
1,B1,≥ 50
2,B2,≥ 50
